The values that follow come from patent publication US20100075326A1.

Experiment [1] addresses high affinity (HA) LFA-1 I domain K287C/K294C, YS2H bait fused to Aga2 with C-terminal FLAG tag (yeast) (UniProt P20701). Put plainly: YS2H: I domain bait on the yeast surface (Aga2 fusion, Flag tag), secreted scFv prey with Myc tag; flow cytometry, mean ± standard error of three measurements; paragraph 71 says goat polyclonal anti-murine antibody was the primary antibody for detecting TS1/22; Flag (bait) MFI 44±2.

Experiment [2] has as its target wild-type LFA-1 I domain, YS2H bait fused to Aga2 with C-terminal FLAG tag (yeast) (UniProt P20701). Description: YS2H: I domain bait on the yeast surface (Aga2 fusion, Flag tag), secreted scFv prey with Myc tag; flow cytometry, mean ± standard error of three measurements; paragraph 71 says goat polyclonal anti-murine antibody was the primary antibody for detecting TS1/22; Flag (bait) MFI 40±0.3.

The target in experiment [3] is the wild-type and HA I domain. Put plainly: predicted from YS2H (flow cytometry of Myc and FLAG tags, Langmuir equation).
Experiment [4] has as its target LFA-1 I domain F265S, soluble, refolded from E. coli (UniProt P20701). Put plainly: SPR (Biacore), I domain injected over scFv AL-57 chip, 10 mM MgCl2.
In experiment [5] the target is high affinity (HA) LFA-1 I domain K287C/K294C, soluble, refolded from E. coli (UniProt P20701). The description is as above.
Experiment [6] concerns the target LFA-1 I domain L295P, soluble, refolded from E. coli (UniProt P20701). The description is as above.
Experiment [7] addresses LFA-1 I domain F265S, YS2H bait fused to Aga2 with C-terminal FLAG tag (yeast) (UniProt P20701). Put plainly: YS2H as in the row 'Myc', but labelled without metal ions with 10 mM EDTA (row 'Myc+ EDTA'); Flag (bait) MFI 52±8.
The target in experiment [8] is LFA-1 I domain L295P, YS2H bait fused to Aga2 with C-terminal FLAG tag (yeast) (UniProt P20701). Description: YS2H as in the row 'Myc', but labelled without metal ions with 10 mM EDTA (row 'Myc+ EDTA'); Flag (bait) MFI 40±2.
For experiment [9], the target named is wild-type LFA-1 I domain, YS2H bait fused to Aga2 with C-terminal FLAG tag (yeast) (UniProt P20701). Description: YS2H: I domain bait on the yeast surface (Aga2 fusion, Flag tag), secreted scFv prey with Myc tag; flow cytometry with anti-Myc antibody, mean ± standard error of three measurements; Flag (bait) MFI 79±1. For orientation: Flow cytometry measures light scatter and fluorescence of single cells or particles in a stream.

Experiment [10] concerns the target high affinity (HA) LFA-1 I domain K287C/K294C, YS2H bait fused to Aga2 with C-terminal FLAG tag (yeast) (UniProt P20701). Put plainly: YS2H: I domain bait on the yeast surface (Aga2 fusion, Flag tag), secreted scFv prey with Myc tag; flow cytometry with anti-Myc antibody, mean ± standard error of three measurements; Flag (bait) MFI 85±7.
For experiment [11] the target is unchanged. Put plainly: predicted from YS2H (flow cytometry of Myc and FLAG tags, Langmuir equation).
Experiment [12] addresses LFA-1 I domain F265S, YS2H bait fused to Aga2 with C-terminal FLAG tag (yeast) (UniProt P20701). The experiment is described as above.
Experiment [13] concerns the target LFA-1 I domain L295P, YS2H bait fused to Aga2 with C-terminal FLAG tag (yeast) (UniProt P20701). The description is as above.
Experiment [14] has the same target. Description: YS2H: I domain mutant bait on the yeast surface, secreted scFv AL-57 prey with Myc tag; flow cytometry with anti-Myc antibody, 10 mM MgCl2, mean ± standard error of three measurements; Flag (bait) MFI 40±2.
Experiment [15] concerns the target LFA-1 I domain F265S, YS2H bait fused to Aga2 with C-terminal FLAG tag (yeast) (UniProt P20701). Description: YS2H: I domain mutant bait on the yeast surface, secreted scFv AL-57 prey with Myc tag; flow cytometry with anti-Myc antibody, 10 mM MgCl2, mean ± standard error of three measurements; Flag (bait) MFI 52±8.
The target is the same in experiment [16]. Put plainly: predicted from YS2H (flow cytometry of Myc and FLAG tags, Langmuir equation). The source holds these as a separate data set.

Read-outs that look alike come from different tables or passages of the source.

The term Kd denotes the equilibrium constant for the complex coming apart. Consider “scFv TS1/22, secreted YS2H prey with C-terminal Myc tag”, for which the MFI (row 'Myc') came to 40 in experiment [1] and 38 in experiment [2]. Also, in [3], the Kd was 148 to 237 nM.

For the substance “scFv AL-57, soluble, refolded from E. coli”, the dissociation constant (Kd) in experiment [4] stood at 15.7 nM; in experiment [5], 32.6 nM; in experiment [6], 243 nM.

Regarding “scFv AL-57, secreted YS2H prey with C-terminal Myc tag”, the figures for the MFI (anti-Myc, with EDTA) in [7] and in experiment [8] were 15 and 10, respectively. Moreover, the MFI (anti-Myc) in experiment [9] was 12; in experiment [10], 80; in experiment [14] it was 13; in experiment [15], 32. Further, the Kd in experiment [11] was 151 nM; in experiment [12], 237 nM; in [13], 440 nM; in experiment [16], 148 to 237 nM.
